The test system of data set [1] is HeLa Kyoto. Kind of data set: melting temperature (median over replicates), in situ; higher = more thermally stable.
In data set [2] the test system is HeLa Kyoto. The experiment in a line: thermal stability score vs G1/S (z-score of summed log2 fold changes over temperatures); higher = more thermally stable than in G1/S.
The subject of data set [3] is HeLa Kyoto. The experiment in a line: solubility change mitosis vs G1/S (difference of NP-40 vs SDS log2 ratios) (log2 ratio difference); higher = more soluble in mitosis.
For data set [4], the system named is HeLa Kyoto. Kind of data set: solubility in G1/S (NP-40 vs SDS abundance) (log2 ratio); higher = more soluble. The settings on record: cell cycle stage: G1/S.
The mark [5] stands for this setting: cell cycle stage: early G1 (4.5 h after nocodazole release).
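Wherever melting temperature (median over replicates), in situ is given: HeLa Kyoto cells synchronized by double thymidine or nocodazole block, proteins quantified by TMT10plex mass spectrometry, three independent biological replicates.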
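Wherever solubility change mitosis vs G1/S (difference of NP-40 vs SDS log2 ratios) is given: synchronized HeLa Kyoto cells (double thymidine block for G1/S, nocodazole release for mitosis), protein amounts in NP-40 versus SDS lysates quantified by mass spectrometry, three biological replicates.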
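Wherever solubility in G1/S (NP-40 vs SDS abundance) is given: HeLa Kyoto cells arrested at G1/S by double thymidine block, proteins quantified by TMT10plex mass spectrometry in mild NP-40 versus SDS extracts, three biological replicates.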
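Wherever thermal stability score vs G1/S (z-score of summed log2 fold changes over temperatures) is given: synchronized HeLa Kyoto cells, proteins quantified by TMT10plex mass spectrometry, three biological replicates, mitosis taken 0.5 h after nocodazole release, G1/S directly after double thymidine block.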

Turning to “MRLLRRRHMPLRLAMVGCAFVLFLFLLHRDVSSREEATEKPWLKSLVSRKDHVLDLMLEAMNNLRDSMPKLQIRAPEAQQTLFSINQSCLPGFYTPAELKPFWERPPQDPNAPGADGKAFQKSKWTPLETQEKEEGYKKHCFNAFASDRISLQRSLGPDTRPPECVDQKFRRCPPLATTSVIIVFHNEAWSTLLRTVYSVLHTTPAILLKEIILVDDASTEEHLKEKLEQYVKQLQVVRVVRQEERKGLITARLLGASVAQAEVLTFLDAHCECFHGWLEPLLARIAEDKTVVVSPDIVTIDLNTFEFAKPVQRGRVHSRGNFDWSLTFGWETLPPHEKQRRKDETYPIKSPTFAGGLFSISKSYFEHIGTYDNQMEIWGGENVEMSFRVWQCGGQLEIIPCSVVGHVFRTKSPHTFPKGTSVIARNQVRLAEVWMDSYKKIFYRRNLQAAKMAQEKSFGDISERLQLREQLHCHNFSWYLHNVYPEMFVPDLTPTFYGAIKNLGTNQCLDVGENNRGGKPLIMYSCHGLGGNQYFEYTTQRDLRHNIAKQLCLHVSKGALGLGSCHFTGKNSQVPKDEEWELAQDQLIRNSGSGTCLTSQDKKPAMAPCNPSDPHQLWLFV [GALNT6]”, the melting temperature was 53.6 °C in the data set on HeLa Kyoto [1] (cell cycle stage: G1/S) and 53.2 °C with HeLa Kyoto [1] (cell cycle stage: mitosis). The thermal stability score in the data set on HeLa Kyoto [2] (setting [5]) worked out at 4; in the data set with HeLa Kyoto [2] (cell cycle stage: mitosis), 5.54. In the data set with HeLa Kyoto [3], the “solubility change mitosis (log2)” value was -0.117. In addition, in the data set on HeLa Kyoto [4], the “solubility in G1/S (log2)” value is 0.0486.

In the case of “MRPEPGGCCCRRTVRANGCVANGEVRNGYVRSSAAAAAAAAAGQIHHVTQNGGLYKRPFNEAFEETPMLVAVLTYVGYGVLTLFGYLRDFLRYWRIEKCHHATEREEQKDFVSLYQDFENFYTRNLYMRIRDNWNRPICSVPGARVDIMERQSHDYNWSFKYTGNIIKGVINMGSYNYLGFARNTGSCQEAAAKVLEEYGAGVCSTRQEIGNLDKHEELEELVARFLGVEAAMAYGMGFATNSMNIPALVGKGCLILSDELNHASLVLGARLSGATIRIFKHNNMQSLEKLLKDAIVYGQPRTRRPWKKILILVEGIYSMEGSIVRLPEVIALKKKYKAYLYLDEAHSIGALGPTGRGVVEYFGLDPEDVDVMMGTFTKSFGASGGYIGGKKELIDYLRTHSHSAVYATSLSPPVVEQIITSMKCIMGQDGTSLGKECVQQLAENTRYFRRRLKEMGFIIYGNEDSPVVPLMLYMPAKIGAFGREMLKRNIGVVVVGFPATPIIESRARFCLSAAHTKEILDTALKEIDEVGDLLQLKYSRHRLVPLLDRPFDETTYEETED [SPTLC2]”, the melting temperature came to 53 °C in the data set on HeLa Kyoto [1] (cell cycle stage: G1/S) and 52.7 °C with HeLa Kyoto [1] (cell cycle stage: mitosis). The thermal stability score with HeLa Kyoto [2] (setting [5]) is 0.665; in the data set with HeLa Kyoto [2] (cell cycle stage: mitosis), -0.386. Further, the “solubility change mitosis (log2)” value with HeLa Kyoto [3] is -0.16. The “solubility in G1/S (log2)” value in the data set with HeLa Kyoto [4] came out at 0.00928.

For “MRPFFLLCFALPGLLHAQQACSRGACYPPVGDLLVGRTRFLRASSTCGLTKPETYCTQYGEWQMKCCKCDSRQPHNYYSHRVENVASSSGPMRWWQSQNDVNPVSLQLDLDRRFQLQEVMMEFQGPMPAGMLIERSSDFGKTWRVYQYLAADCTSTFPRVRQGRPQSWQDVRCQSLPQRPNARLNGGKVQLNLMDLVSGIPATQSQKIQEVGEITNLRVNFTRLAPVPQRGYHPPSAYYAVSQLRLQGSCFCHGHADRCAPKPGASAGPSTAVQVHDVCVCQHNTAGPNCERCAPFYNNRPWRPAEGQDAHECQRCDCNGHSETCHFDPAVFAASQGAYGGVCDNCRDHTEGKNCERCQLHYFRNRRPGASIQETCISCECDPDGAVPGAPCDPVTGQCVCKEHVQGERCDLCKPGFTGLTYANPQGCHRCDCNILGSRRDMPCDEESGRCLCLPNVVGPKCDQCAPYHWKLASGQGCEPCACDPHNSLSPQCNQFTGQCPCREGFGGLMCSAAAIRQCPDRTYGDVATGCRACDCDFRGTEGPGCDKASGRCLCRPGLTGPRCDQCQRGYCNRYPVCVACHPCFQTYDADLREQALRFGRLRNATASLWSGPGLEDRGLASRILDAKSKIEQIRAVLSSPAVTEQEVAQVASAILSLRRTLQGLQLDLPLEEETLSLPRDLESLDRSFNGLLTMYQRKREQFEKISSADPSGAFRMLSTAYEQSAQAAQQVSDSSRLLDQLRDSRREAERLVRQAGGGGGTGSPKLVALRLEMSSLPDLTPTFNKLCGNSRQMACTPISCPGELCPQDNGTACGSRCRGVLPRAGGAFLMAGQVAEQLRGFNAQLQRTRQMIRAAEESASQIQSSAQRLETQVSASRSQMEEDVRRTRLLIQQVRDFLTDPDTDAATIQEVSEAVLALWLPTDSATVLQKMNEIQAIAARLPNVDLVLSQTKQDIARARRLQAEAEEARSRAHAVEGQVEDVVGNLRQGTVALQEAQDTMQGTSRSLRLIQDRVAEVQQVLRPAEKLVTSMTKQLGDFWTRMEELRHQARQQGAEAVQAQQLAEGASEQALSAQEGFERIKQKYAELKDRLGQSSMLGEQGARIQSVKTEAEELFGETMEMMDRMKDMELELLRGSQAIMLRSADLTGLEKRVEQIRDHINGRVLYYATCK [LAMB3]”, the melting temperature in the data set on HeLa Kyoto [1] (cell cycle stage: G1/S) was 53.8 °C; in the data set with HeLa Kyoto [1] (cell cycle stage: mitosis) it was 53.6 °C. In addition, the thermal stability score was -0.552 with HeLa Kyoto [2] (setting [5]) and 1.4 with HeLa Kyoto [2] (cell cycle stage: mitosis). Also, in the data set with HeLa Kyoto [3], the “solubility change mitosis (log2)” value was -0.12. In addition, the “solubility in G1/S (log2)” value with HeLa Kyoto [4] is 0.117.

“MRPQELPRLAFPLLLLLLLLLPPPPCPAHSATRFDPTWESLDARQLPAWFDQAKFGIFIHWGVFSVPSFGSEWFWWYWQKEKIPKYVEFMKDNYPPSFKYEDFGPLFTAKFFNANQWADIFQASGAKYIVLTSKHHEGFTLWGSEYSWNWNAIDEGPKRDIVKELEVAIRNRTDLRFGLYYSLFEWFHPLFLEDESSSFHKRQFPVSKTLPELYELVNNYQPEVLWSDGDGGAPDQYWNSTGFLAWLYNESPVRGTVVTNDRWGAGSICKHGGFYTCSDRYNPGHLLPHKWENCMTIDKLSWGYRREAGISDYLTIEELVKQLVETVSCGGNLLMNIGPTLDGTISVVFEERLRQMGSWLKVNGEAIYETHTWRSQNDTVTPDVWYTSKPKEKLVYAIFLKWPTSGQLFLGHPKAILGATEVKLLGHGQPLNWISLEQNGIMVELPQLTIHQMPCKWGWALALTNVI [FUCA2]”: the melting temperature with HeLa Kyoto [1] (cell cycle stage: G1/S) and with HeLa Kyoto [1] (cell cycle stage: mitosis) was 54.8 °C in each case. Further, the thermal stability score with HeLa Kyoto [2] (setting [5]) came to 2.46; in the data set with HeLa Kyoto [2] (cell cycle stage: mitosis), 3.64. Also, the “solubility change mitosis (log2)” value with HeLa Kyoto [3] is -0.00976. The “solubility in G1/S (log2)” value in the data set with HeLa Kyoto [4] is -0.00865.

Turning to “MRRFLLLYATQQGQAKAIAEEICEQAVVHGFSADLHCISESDKYDLKTETAPLVVVVSTTGTGDPPDTARKFVKEIQNQTLPVDFFAHLRYGLLGLGDSEYTYFCNGGKIIDKRLQELGARHFYDTGHADDCVGLELVVEPWIAGLWPALRKHFRSSRGQEEISGALPVASPASSRTDLVKSELLHIESQVELLRFDDSGRKDSEVLKQNAVNSNQSNVVIEDFESSLTRSVPPLSQASLNIPGLPPEYLQVHLQESLGQEESQVSVTSADPVFQVPISKAVQLTTNDAIKTTLLVELDISNTDFSYQPGDAFSVICPNSDSEVQSLLQRLQLEDKREHCVLLKIKADTKKKGATLPQHIPAGCSLQFIFTWCLEIRAIPKKAFLRALVDYTSDSAEKRRLQELCSKQGAADYSRFVRDACACLLDLLLAFPSCQPPLSLLLEHLPKLQPRPYSCASSSLFHPGKLHFVFNIVEFLSTATTEVLRKGVCTGWLALLVASVLQPNIHASHEDSGKALAPKISISPRTTNSFHLPDDPSIPIIMVGPGTGIAPFIGFLQHREKLQEQHPDGNFGAMWLFFGCRHKDRDYLFRKELRHFLKHGILTHLKVSFSRDAPVGEEEAPAKYVQDNIQLHGQQVARILLQENGHIYVCGDAKNMAKDVHDALVQIISKEVGVEKLEAMKTLATLKEEKRYLQDIWS [MTRR]”, the results for the melting temperature with HeLa Kyoto [1] (cell cycle stage: G1/S) and in the data set with HeLa Kyoto [1] (cell cycle stage: mitosis) were 50.1 °C and 50.2 °C, respectively. Moreover, the thermal stability score with HeLa Kyoto [2] (setting [5]) was found to be 0.212; with HeLa Kyoto [2] (cell cycle stage: mitosis), 0.326. In addition, the “solubility change mitosis (log2)” value with HeLa Kyoto [3] was -0.105. The “solubility in G1/S (log2)” value in the data set with HeLa Kyoto [4] was determined as 0.0379.

These data come from the supplement of paper PMC5998384.
